Experimental findings from US20240327497A1 are described below.

One may read the Kd as the concentration at which binding is half-saturated. Higher therefore signals lower affinity. A word on the koff: it is the first-order rate constant of dissociation. A lower koff goes with a long-lived complex. The kon is the rate constant with which the complex forms.

The target of assay [1] is canine FcRn (FcRn large subunit with canine beta-2-microglobulin) (canine). Put plainly: SPR pH 5.5, SASA-Fc captured on BSA, FcRn 400 nM.
Assay [2] shares this target. Put plainly: SPR pH 5.5, SASA-Fc captured on BSA, FcRn 200 nM.
Assay [3] has the same target. The assay can be described thus: SPR pH 5.5, SASA-Fc captured on BSA, FcRn 200 nM. This is another data set of the same source.
Assay [4] has the same target. Put plainly: SPR pH 5.5, SASA-Fc captured on BSA, FcRn 200 nM. The source holds these as a separate data set.
For assay [5] the target is unchanged. The assay can be described thus: SPR pH 5.5, SASA-Fc captured on BSA, FcRn 100-800 nM.
For assay [6] the target is unchanged. Put plainly: SPR pH 5.5, SASA-Fc captured on BSA, FcRn 200 nM. The source holds these as a separate data set.

“And” between values parts separate entries of the source, which are not always exact repeats. Equal values may be shown once.

B1: canine IgGB Fc (CH2-CH3) N434A with N-terminal SASA tag (Fc fusion, part only; not given: SASA tag, not shown: another chain or arm of the molecule; small tags and cut ends)
Fc: APEMLGGPSVFIFPPKPKDTLLIARTPEVTCVVVDLDPEDPEVQISWFVDGKQMQTAKTQPREEQFNGTYRVVSVLPIGHQDWLKGKQFTCKVNNKALPSPIERTISKARGQAHQPSVYVLPPSREELSKNTVSLTCLIKDFFPPDIDVEWQSNGQQEPESKYRTTPPQLDEDGSYFLYSKLSVDKSRWQRGDTFICAVMHEALHAHYTQESLSHSPGK
B1: in assay [1], the Kd is 0.457 µM and 0.494 µM; the WT KD Avg/Variant KD is 1.24 and 1.14; the koff was 0.237 s⁻¹ and 0.477 s⁻¹; the kon is 518000 M⁻¹ s⁻¹ and 966000 M⁻¹ s⁻¹. Besides, in assay [2], the Kd is 0.573 µM and 0.629 µM; the koff was 0.156 s⁻¹ and 0.164 s⁻¹; the kon is 272000 M⁻¹ s⁻¹ and 261000 M⁻¹ s⁻¹.

B2: canine IgGB Fc (CH2-CH3) D312P with N-terminal SASA tag (Fc fusion, part only; not given: SASA tag, not shown: another chain or arm of the molecule; small tags and cut ends)
Fc: APEMLGGPSVFIFPPKPKDTLLIARTPEVTCVVVDLDPEDPEVQISWFVDGKQMQTAKTQPREEQFNGTYRVVSVLPIGHQPWLKGKQFTCKVNNKALPSPIERTISKARGQAHQPSVYVLPPSREELSKNTVSLTCLIKDFFPPDIDVEWQSNGQQEPESKYRTTPPQLDEDGSYFLYSKLSVDKSRWQRGDTFICAVMHEALHNHYTQESLSHSPGK
B2: in assay [3], the dissociation constant Kd was 0.291 µM and 0.439 µM; the off-rate constant (koff) was 0.0894 s⁻¹ and 0.11 s⁻¹; the kon is 307000 M⁻¹ s⁻¹ and 251000 M⁻¹ s⁻¹.

B3: canine IgGB Fc (CH2-CH3) L252Y with N-terminal SASA tag (Fc fusion, part only; not given: SASA tag, not shown: another chain or arm of the molecule; small tags and cut ends)
Fc: APEMLGGPSVFIFPPKPKDTLYIARTPEVTCVVVDLDPEDPEVQISWFVDGKQMQTAKTQPREEQFNGTYRVVSVLPIGHQDWLKGKQFTCKVNNKALPSPIERTISKARGQAHQPSVYVLPPSREELSKNTVSLTCLIKDFFPPDIDVEWQSNGQQEPESKYRTTPPQLDEDGSYFLYSKLSVDKSRWQRGDTFICAVMHEALHNHYTQESLSHSPGK
Consider B3, for which, in assay [4], the Kd was 0.0987 µM and 0.114 µM; the koff is 0.0397 s⁻¹ and 0.041 s⁻¹; the kon was 402000 M⁻¹ s⁻¹ and 358000 M⁻¹ s⁻¹. Also, in assay [5], the Kd stood at 0.173 µM, the koff is 0.0476 s⁻¹ and the kon came out at 275000 M⁻¹ s⁻¹.

B4: canine IgGB Fc (CH2-CH3) A426H with N-terminal SASA tag (Fc fusion, part only; not given: SASA tag, not shown: another chain or arm of the molecule; small tags and cut ends)
Fc: APEMLGGPSVFIFPPKPKDTLLIARTPEVTCVVVDLDPEDPEVQISWFVDGKQMQTAKTQPREEQFNGTYRVVSVLPIGHQDWLKGKQFTCKVNNKALPSPIERTISKARGQAHQPSVYVLPPSREELSKNTVSLTCLIKDFFPPDIDVEWQSNGQQEPESKYRTTPPQLDEDGSYFLYSKLSVDKSRWQRGDTFICHVMHEALHNHYTQESLSHSPGK
For the molecule B4, in assay [3], the Kd was 0.16 µM and 0.153 µM; the koff was 0.135 s⁻¹ and 0.14 s⁻¹; the kon is 843000 M⁻¹ s⁻¹ and 915000 M⁻¹ s⁻¹. Moreover, in assay [5], the Kd amounted to 0.343 µM, the koff is 0.106 s⁻¹ and the on-rate constant (kon) was 308000 M⁻¹ s⁻¹.

B5: canine IgGB Fc (CH2-CH3) T250Q with N-terminal SASA tag (Fc fusion, part only; not given: SASA tag, not shown: another chain or arm of the molecule; small tags and cut ends)
Fc: APEMLGGPSVFIFPPKPKDQLLIARTPEVTCVVVDLDPEDPEVQISWFVDGKQMQTAKTQPREEQFNGTYRVVSVLPIGHQDWLKGKQFTCKVNNKALPSPIERTISKARGQAHQPSVYVLPPSREELSKNTVSLTCLIKDFFPPDIDVEWQSNGQQEPESKYRTTPPQLDEDGSYFLYSKLSVDKSRWQRGDTFICAVMHEALHNHYTQESLSHSPGK
As for B5, in assay [6], the Kd is 2.59 µM and 2.84 µM; the koff was 0.258 s⁻¹ and 0.268 s⁻¹; the kon was 99600 M⁻¹ s⁻¹ and 94300 M⁻¹ s⁻¹.

B6: canine IgGB Fc (CH2-CH3) N434R with N-terminal SASA tag (Fc fusion, part only; not given: SASA tag, not shown: another chain or arm of the molecule; small tags and cut ends)
Fc: APEMLGGPSVFIFPPKPKDTLLIARTPEVTCVVVDLDPEDPEVQISWFVDGKQMQTAKTQPREEQFNGTYRVVSVLPIGHQDWLKGKQFTCKVNNKALPSPIERTISKARGQAHQPSVYVLPPSREELSKNTVSLTCLIKDFFPPDIDVEWQSNGQQEPESKYRTTPPQLDEDGSYFLYSKLSVDKSRWQRGDTFICAVMHEALHRHYTQESLSHSPGK
Regarding B6, in assay [2], the Kd is 0.107 µM and 0.159 µM; the koff was 0.0524 s⁻¹ and 0.0633 s⁻¹; the kon was 488000 M⁻¹ s⁻¹ and 399000 M⁻¹ s⁻¹. Besides, in assay [5], the Kd was found to be 0.182 µM, the off-rate constant (koff) worked out at 0.0801 s⁻¹ and the on-rate (kon) turned out to be 440000 M⁻¹ s⁻¹.

B7: canine IgGB Fc (CH2-CH3) A426F with N-terminal SASA tag (Fc fusion, part only; not given: SASA tag, not shown: another chain or arm of the molecule; small tags and cut ends)
Fc: APEMLGGPSVFIFPPKPKDTLLIARTPEVTCVVVDLDPEDPEVQISWFVDGKQMQTAKTQPREEQFNGTYRVVSVLPIGHQDWLKGKQFTCKVNNKALPSPIERTISKARGQAHQPSVYVLPPSREELSKNTVSLTCLIKDFFPPDIDVEWQSNGQQEPESKYRTTPPQLDEDGSYFLYSKLSVDKSRWQRGDTFICFVMHEALHNHYTQESLSHSPGK
Regarding B7, in assay [3], the Kd was 0.182 µM and 0.181 µM; the koff was 0.143 s⁻¹ and 0.147 s⁻¹; the kon is 786000 M⁻¹ s⁻¹ and 811000 M⁻¹ s⁻¹. Moreover, in assay [5], the Kd came to 0.522 µM, the koff was 0.132 s⁻¹ and the kon was found to be 253000 M⁻¹ s⁻¹.

B8: canine IgGB Fc (CH2-CH3) N434Y with N-terminal SASA tag (Fc fusion, part only; not given: SASA tag, not shown: another chain or arm of the molecule; small tags and cut ends)
Fc: APEMLGGPSVFIFPPKPKDTLLIARTPEVTCVVVDLDPEDPEVQISWFVDGKQMQTAKTQPREEQFNGTYRVVSVLPIGHQDWLKGKQFTCKVNNKALPSPIERTISKARGQAHQPSVYVLPPSREELSKNTVSLTCLIKDFFPPDIDVEWQSNGQQEPESKYRTTPPQLDEDGSYFLYSKLSVDKSRWQRGDTFICAVMHEALHYHYTQESLSHSPGK
Regarding B8, in assay [2], the Kd turned out to be 0.0159 µM, the koff stood at 0.00968 s⁻¹ and the kon stood at 607000 M⁻¹ s⁻¹. In assay [5], this molecule showed a Kd of 0.0291 µM, a koff of 0.0151 s⁻¹ and a kon of 520000 M⁻¹ s⁻¹.

B9: canine IgGB Fc (CH2-CH3) N434W with N-terminal SASA tag (Fc fusion, part only; not given: SASA tag, not shown: another chain or arm of the molecule; small tags and cut ends)
Fc: APEMLGGPSVFIFPPKPKDTLLIARTPEVTCVVVDLDPEDPEVQISWFVDGKQMQTAKTQPREEQFNGTYRVVSVLPIGHQDWLKGKQFTCKVNNKALPSPIERTISKARGQAHQPSVYVLPPSREELSKNTVSLTCLIKDFFPPDIDVEWQSNGQQEPESKYRTTPPQLDEDGSYFLYSKLSVDKSRWQRGDTFICAVMHEALHWHYTQESLSHSPGK
Consider B9, for which, in assay [2], the Kd is 0.0404 µM and 0.0757 µM. In assay [5], this molecule gave a dissociation constant Kd of 0.101 µM, a koff of 0.045 s⁻¹ and a kon of 446000 M⁻¹ s⁻¹.

B10: canine IgGB Fc (CH2-CH3) T250E with N-terminal SASA tag (Fc fusion, part only; not given: SASA tag, not shown: another chain or arm of the molecule; small tags and cut ends)
Fc: APEMLGGPSVFIFPPKPKDELLIARTPEVTCVVVDLDPEDPEVQISWFVDGKQMQTAKTQPREEQFNGTYRVVSVLPIGHQDWLKGKQFTCKVNNKALPSPIERTISKARGQAHQPSVYVLPPSREELSKNTVSLTCLIKDFFPPDIDVEWQSNGQQEPESKYRTTPPQLDEDGSYFLYSKLSVDKSRWQRGDTFICAVMHEALHNHYTQESLSHSPGK
For B10, in assay [6], the Kd was 2.48 µM and 1.66 µM; the dissociation rate constant (koff) was 0.284 s⁻¹ and 0.287 s⁻¹; the kon was 114000 M⁻¹ s⁻¹ and 172000 M⁻¹ s⁻¹.

B11: canine IgGB Fc (CH2-CH3) A426Y with N-terminal SASA tag (Fc fusion, part only; not given: SASA tag, not shown: another chain or arm of the molecule; small tags and cut ends)
Fc: APEMLGGPSVFIFPPKPKDTLLIARTPEVTCVVVDLDPEDPEVQISWFVDGKQMQTAKTQPREEQFNGTYRVVSVLPIGHQDWLKGKQFTCKVNNKALPSPIERTISKARGQAHQPSVYVLPPSREELSKNTVSLTCLIKDFFPPDIDVEWQSNGQQEPESKYRTTPPQLDEDGSYFLYSKLSVDKSRWQRGDTFICYVMHEALHNHYTQESLSHSPGK
Consider B11, for which, in assay [3], the Kd is 0.146 µM and 0.143 µM; the koff is 0.109 s⁻¹ and 0.112 s⁻¹; the kon is 750000 M⁻¹ s⁻¹ and 785000 M⁻¹ s⁻¹. In assay [5], this molecule gave an equilibrium dissociation constant (Kd) of 0.389 µM, a koff of 0.102 s⁻¹ and an on-rate (kon) of 262000 M⁻¹ s⁻¹.

B12: canine IgGB Fc (CH2-CH3) L252M with N-terminal SASA tag (Fc fusion, part only; not given: SASA tag, not shown: another chain or arm of the molecule; small tags and cut ends)
Fc: APEMLGGPSVFIFPPKPKDTLMIARTPEVTCVVVDLDPEDPEVQISWFVDGKQMQTAKTQPREEQFNGTYRVVSVLPIGHQDWLKGKQFTCKVNNKALPSPIERTISKARGQAHQPSVYVLPPSREELSKNTVSLTCLIKDFFPPDIDVEWQSNGQQEPESKYRTTPPQLDEDGSYFLYSKLSVDKSRWQRGDTFICAVMHEALHNHYTQESLSHSPGK
As for B12, in assay [4], the Kd is 0.869 µM and 0.774 µM; the koff is 0.168 s⁻¹ and 0.169 s⁻¹; the kon is 193000 M⁻¹ s⁻¹ and 218000 M⁻¹ s⁻¹.
